This is an account of results in publication PMC4506714.

The target of one series is SSB (E. coli, UniProt P0AGE0 1-178). In words: EMSA. (In general: A gel shift assay detects complexes by their altered migration in electrophoresis.)
In another series the target is RPA (RPA70-RPA32-RPA14) (UniProt P27694;P15927;P35244 1-616;1-270;1-121). In words: EMSA.
Chain of RPA (RPA70-RPA32-RPA14) (P27694 whole entry, chain 1 of 3): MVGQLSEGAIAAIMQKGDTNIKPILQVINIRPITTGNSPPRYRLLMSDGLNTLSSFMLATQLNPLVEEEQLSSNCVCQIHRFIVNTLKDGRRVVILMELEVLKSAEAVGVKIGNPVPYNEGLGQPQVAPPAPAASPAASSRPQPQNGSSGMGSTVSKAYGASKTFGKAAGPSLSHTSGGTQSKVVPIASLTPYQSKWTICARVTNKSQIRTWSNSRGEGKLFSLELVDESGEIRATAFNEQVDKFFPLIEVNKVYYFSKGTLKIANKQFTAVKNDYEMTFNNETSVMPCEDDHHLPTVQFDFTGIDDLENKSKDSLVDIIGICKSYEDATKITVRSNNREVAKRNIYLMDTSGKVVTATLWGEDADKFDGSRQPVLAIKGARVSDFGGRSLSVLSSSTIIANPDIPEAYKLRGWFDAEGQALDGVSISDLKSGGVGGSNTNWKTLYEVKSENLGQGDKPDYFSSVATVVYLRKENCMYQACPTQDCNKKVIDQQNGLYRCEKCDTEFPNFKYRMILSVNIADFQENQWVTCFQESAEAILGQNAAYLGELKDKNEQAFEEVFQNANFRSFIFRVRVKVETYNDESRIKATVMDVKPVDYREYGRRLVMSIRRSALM
Chain of RPA (RPA70-RPA32-RPA14) (P15927 whole entry, chain 2 of 3): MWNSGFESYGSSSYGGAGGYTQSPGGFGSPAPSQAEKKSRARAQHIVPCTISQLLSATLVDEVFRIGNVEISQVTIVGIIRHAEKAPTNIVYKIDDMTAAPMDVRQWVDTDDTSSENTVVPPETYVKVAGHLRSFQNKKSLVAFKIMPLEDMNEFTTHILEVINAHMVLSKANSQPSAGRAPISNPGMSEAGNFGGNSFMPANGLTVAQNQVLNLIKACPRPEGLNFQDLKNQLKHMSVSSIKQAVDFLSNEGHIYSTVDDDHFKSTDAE
Chain of RPA (RPA70-RPA32-RPA14) (P35244 whole entry, chain 3 of 3): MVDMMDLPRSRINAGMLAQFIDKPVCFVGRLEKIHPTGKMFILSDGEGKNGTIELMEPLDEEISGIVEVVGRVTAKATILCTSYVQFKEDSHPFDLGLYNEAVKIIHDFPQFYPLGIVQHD

Chain of SSB (P0AGE0 whole entry): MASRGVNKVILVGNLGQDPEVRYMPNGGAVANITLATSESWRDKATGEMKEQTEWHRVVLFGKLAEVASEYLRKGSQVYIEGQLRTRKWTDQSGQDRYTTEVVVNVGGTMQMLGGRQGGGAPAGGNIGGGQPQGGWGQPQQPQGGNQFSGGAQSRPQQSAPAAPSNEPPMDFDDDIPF

In the case of TTTTTTTTTTTTTTTTTTTTTTTTTTTTTT (ssDNA) [dT30], the binding result in the series with SSB and with RPA (RPA70-RPA32-RPA14) was “binds” each time.
